Data published in patent US20250027068A1.

B1: VRT-48 (Fc fusion)
chain: VTSVWTKGVTPPTDFRKIVDGNIAYYHAPYKAGQGWYDITKAFDGGDDLLCGAATAGNMLHWWFDQNKEQIENYLKKHPEKQKINFNGEQMFDVKEAIDTKDSQTNSELFNYFKEKAFPYLSTKHLGVFPDHVIDMFINGYRLSLTNHGPTPVKRGSKDPRGGIFDAVFTRGDQSKLLTNRHDLKNKTLKEISDLIKQELTEGKALGISHTYANVRINHVINLWGADFDAEGNLEAIYVTDSDSNASIGMKKYFVGVNSNGKVAISAKEIEEDNIGAQVLGLFTLSTGQDIWNQTNDKTHTCPPCPAPEAAGAPSVFLFPPKPKDTLMISRTPEVTCVVVDVSHEDPEVKFNWYVDGVEVHNAKTKPREEQQNSTYRVVSVLTVLHQDWLNGKEYKCKVSNKALKAPIEKTISKAKGQPREPQVYTLPPSRDELTKNQVSLTCLVKGFYPSDIAVEWESNGQPENNYKTTPPVLDSDGSFFLYSKLTVDKSRWQQGNVFSCSVMHEALHNHYTQKSLSLSPG
B2: VRT-44 (Fc fusion)
chain: SQTEDSESLQRLRDIEDFQAEKKKQNVVYTKWLDGVDVKDHDFRKIVDGNIAYYATPLLNGRGFYDINKDFNRDNDKCAAAVAANMFHYWLDRNRDNVDRFLRQNPEKHGIIELPDEQLKLSDFLNTYESDDGYRDKSKLFDFISNNFNKPVWTDKLLDNYINGYAYNYKYGRTIEDSTKNTSKINFFKEVFNEKILTNIHSIRNQNEFSVLLSEALYTGKAIGLSYGPAGLRHSLGHIISVWGADLDADGNVVAIYVTDSDDKKLTIGDERVGLKRYKISTDDEGRLRLTAYEETHNTGGQIRGLWTLDTGKQAWADYFDKTEQTGTDQAEQDKTHTCPPCPAPEAAGAPSVFLFPPKPKDTLMISRTPEVTCVVVDVSHEDPEVKFNWYVDGVEVHNAKTKPREEQQNSTYRVVSVLTVLHQDWLNGKEYKCKVSNKALKAPIEKTISKAKGQPREPQVYTLPPSRDELTKNQVSLTCLVKGFYPSDIAVEWESNGQPENNYKTTPPVLDSDGSFFLYSKLTVDKSRWQQGNVFSCSVMHEALHNHYTQKSLSLSPG
B3: VRT-47 (Fc fusion)
chain: VTSVWTKGVTPPTDFIYGEDVLHAPYKAGQGWYDITKTFNGKDDLLCGAATAGNMLHWWFDQNKEQIENYLKKHPEKQKINFNGEQMFDVKEAIDTKDSQLDSKLFEYFKEKAFPYLSTKHLGVFPDHVIDMFINGYRLSLTNHGPTPVKRGSKDPRGGIFDAVFTRGDQSKLLTNRHDLKNKTLKEISDLIKQELTEGKALGISHTYANVRINHVINLWGADFDAEGNLEAIYVTDSDSNASIGMKKYFVGVNSNGKVAISAKEIEEDNIGAQVLGLFTLSTGQDIWNQTNDKTHTCPPCPAPEAAGAPSVFLFPPKPKDTLMISRTPEVTCVVVDVSHEDPEVKFNWYVDGVEVHNAKTKPREEQQNSTYRVVSVLTVLHQDWLNGKEYKCKVSNKALKAPIEKTISKAKGQPREPQVYTLPPSRDELTKNQVSLTCLVKGFYPSDIAVEWESNGQPENNYKTTPPVLDSDGSFFLYSKLTVDKSRWQQGNVFSCSVMHEALHNHYTQKSLSLSPG

Molecular target: pooled human IgG (human)
Assay: cell-based or functional assay

Point of comparison: B2, Enzyme Activity Endpoint Assay, Fab′2 0 ng/µL. Against it:
- B1 — higher, 9 ng/µL
- B3 — higher, 168 ng/µL

Point of comparison: B1, Enzyme Activity Endpoint Assay, Fc 222 ng/µL. Against it:
- B2 — lower, 28 ng/µL
- B3 — higher, 317 ng/µL

Point of comparison: B1, Enzyme Activity Endpoint Assay, IgG 134 ng/µL. Against it:
- B2 — higher, 1070 ng/µL
- B3 — higher, 253 ng/µL

Point of comparison: B2, Enzyme Activity Endpoint Assay, scIgG 21 ng/µL. Against it:
- B1 — higher, 258 ng/µL
- B3 — higher, 156 ng/µL
